This note sets out measurements from the supplement of paper PMC12764529.

± gives the half width of the 95% confidence interval.

Data set [1] in a line: folding stability dG unfold (combined trypsin and chymotrypsin); higher = more stable. In short, it runs like this: (§1)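 Bayesian fitting of sequencing counts gave K50 for each design. Unfolding free energy followed by setting this against a sequence-predicted unfolded-state K50 and a shared folded-state K50, either per protease or with trypsin and chymotrypsin combined. The designs, under 80 residues and lacking cysteine, were digested in a PA-tagged cDNA display format at 11 threefold-diluted protease concentrations and without protease, and only those with AlphaFold2 dimer inter-PAE above 15 were kept.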

The nature of data set [2]: folding stability dG unfold from chymotrypsin proteolysis; higher = more stable. Put shortly:
as §1

Data set [3] in a line: folding stability dG unfold from trypsin proteolysis; higher = more stable. Put shortly: as §1

Turning to “SAGGSAGGSAMKTLVIEGLSLEEIEELAKEIPGKTVRIVFKDGSVITIYPDGKIEIEPLPESAGGSAGGSAG [r3_269_TrROS_Hall]”, the figures for the “folding stability dG unfold” value in data set [1], in data set [2] and in data set [3] were 2.37 ± 0.054 kcal/mol, 2.64 ± 0.031 kcal/mol and 1.75 ± 0.059 kcal/mol, respectively.
On the same counts, the results for “SAGGSAGGSAMKTSSGTVSFPDSTVKLSYENFGDGSVKKSVVEVVSRPPPPPVPPSNPHYLQSAGGSAGGSA [r18_176_JUSTAS]” are 0.702 ± 0.39 kcal/mol, 0.567 ± 0.22 kcal/mol and 0.667 ± 0.12 kcal/mol.
On the same counts, the results for “SAGGSAGGSAMKVPLENVENPKKFPGTGLEIYTFTDKETGKKKIVLVEKPPNKGKKITVIESAGGSAGGSAG [r3_491_JUSTAS]” are 0.0523 ± 0.14 kcal/mol, -0.146 ± 0.28 kcal/mol and 0.0339 ± 0.12 kcal/mol.
With “SAGGSAGGSAMKVRVKIKITRGSKEYEEEFILPEEEIEKLKEEIPEDYEVEIVDKEPLVLKSAGGSAGGSAG [r3_195_JUSTAS]”, the “folding stability dG unfold” value in data set [1] worked out at 0.46 ± 0.27 kcal/mol; in data set [2], 0.771 ± 0.16 kcal/mol; in data set [3], 0.129 ± 0.16 kcal/mol.
On the same counts, the results for “SAGGSAGGSAMKVSTTPVTLPNGESATLETLPDGTKVLKVGDKYIVVYPSGEVKEVPLEELLSAGGSAGGSA [r18_379_JUSTAS]” are 1.59 ± 0.12 kcal/mol, 1.76 ± 0.046 kcal/mol and 1.43 ± 0.06 kcal/mol.
In the same order, the values of “SAGGSAGGSAMKYYVTITFTDPNNGNTTTEIKEVTTEEEVEKVVEELAPSSYASVKVSIKPKSAGGSAGGSA [r18_258_JUSTAS]” are 0.892 ± 0.2 kcal/mol, 1.16 ± 0.28 kcal/mol and 0.304 ± 0.059 kcal/mol.
On the same counts, the results for “SAGGSAGGSAMLVIRVVTEDGEEREIEIPEGEELTLEEILAALRTPDGREVPIERVEIFPASAGGSAGGSAG [r3_465_TrROS_Hall]” are 1.84 ± 0.11 kcal/mol, 1.75 ± 0.029 kcal/mol and 2.04 ± 0.046 kcal/mol.
For the sequence “SAGGSAGGSAMPEPVLIVVEVESLEEAKKLAEELAVEGVKVEVDPESGLVKIEIEKESLLESAGGSAGGSAG [r3_186_TrMRF]”, the “folding stability dG unfold” value worked out at 1.12 ± 0.11 kcal/mol in data set [1], 1.23 ± 0.08 kcal/mol in data set [2] and 1.03 ± 0.092 kcal/mol in data set [3].
On the same counts, the results for “SAGGSAGGSAMPGKTYRVRIRLYNEETGELVEERELEVETLDELKEAAEKEGWKIVEIEVESAGGSAGGSAG [r3_423_TrROS_Hall]” are 3.36 ± 0.19 kcal/mol, 3.49 ± 0.11 kcal/mol and 3.14 ± 0.14 kcal/mol.
In the same order, the values of “SAGGSAGGSAMPGQKVRLTDELKKAGLEIEEAEVVEVDGKLYIRVNGKIIEIDADAIEEIEPSAGGSAGGSA [r18_445_TrROS_Hall]” are 1.11 ± 0.1 kcal/mol, 1.43 ± 0.037 kcal/mol and 0.366 ± 0.13 kcal/mol.
On the same counts, the results for “SAGGSAGGSAMPKVTIKITVYNAETGELRTVTLTLPEEDMSLEEIAAALPPGWRIVKVELLSAGGSAGGSAG [r3_80_TrROS_Hall]” are 4.34 ± 0.075 kcal/mol, 4.65 ± 0.074 kcal/mol and 3.46 ± 0.077 kcal/mol.
In the case of “SAGGSAGGSAMPLEKVIKNLTSSGSVESLKEKLAKEYGVEKVEVTKDPNSDTYSAKVFLKKPSAGGSAGGSA [r18_275_JUSTAS]”, the “folding stability dG unfold” value in data set [1] is 0.131 ± 0.15 kcal/mol; in data set [2] it was -0.0178 ± 0.31 kcal/mol; in data set [3] it was -0.147 ± 0.18 kcal/mol.
“SAGGSAGGSAMPPDAKPVRTETDPATGTTTEYILYPDSDTTIRKTHLPDGSVQVEEFSVSKTSAGGSAGGSA [r18_521_JUSTAS]”: the entries for the “folding stability dG unfold” value in data set [1], in data set [2] and in data set [3] were -0.491 ± 0.29 kcal/mol, -0.491 ± 0.17 kcal/mol and -0.743 ± 0.15 kcal/mol, respectively.
In the same order, the values of “SAGGSAGGSAMPPLISTTPILGEEPGKRLVREIVTLPDGSLIELTYDEDGNVIESKKYIVGKSAGGSAGGSA [r18_467_JUSTAS]” are 0.94 ± 0.049 kcal/mol, 1.22 ± 0.037 kcal/mol and 0.132 ± 0.041 kcal/mol.
On to “SAGGSAGGSAMPTYDNPDSLSIEEVKEKVAKEAKEKYPGKSNITVPVKFSDGTEYTVTIKIESAGGSAGGSA [r18_449_JUSTAS]”, for which the “folding stability dG unfold” value in data set [1] is -0.405 ± 0.21 kcal/mol; in data set [2], -0.771 ± 0.21 kcal/mol; in data set [3], -0.288 ± 0.05 kcal/mol.
On to “SAGGSAGGSAMRELVKRAAKNGNPGQKVMIRPPDKRYFPITVEGNKIEPKDLPPGWEVHVISAGGSAGGSAG [r3_244_TrROS]”, for which the “folding stability dG unfold” value in data set [1] is -0.37 ± 0.28 kcal/mol; in data set [2] it was -0.443 ± 0.3 kcal/mol; in data set [3], -0.427 ± 0.39 kcal/mol.
On the same counts, the results for “SAGGSAGGSAMRLEIELENGLKIEIELEVNEDGELKMKIKIEPLPPVPEVVVTKVVKLEEESAGGSAGGSAG [r3_15_TrROS_Hall]” are 1.98 ± 0.39 kcal/mol, 1.69 ± 0.12 kcal/mol and 1.72 ± 0.29 kcal/mol.
In the same order, the values of “SAGGSAGGSAMSEEERRRRAEEERRKKPPVFKITEITVERDEDGNLRVTFRLEDGSTVTIELSAGGSAGGSA [r18_423_TrROS_Hall]” are 2.91 ± 0.14 kcal/mol, 3.33 ± 0.088 kcal/mol and 1.89 ± 0.039 kcal/mol.
On the same counts, the results for “SAGGSAGGSAMSPTEAERARPVPVVKTETTVTLDPSGYRVETVTYDGGVTETVVTPLPPELASAGGSAGGSA [r18_192_JUSTAS]” are 0.0301 ± 0.085 kcal/mol, -0.143 ± 0.11 kcal/mol and 0.0994 ± 0.04 kcal/mol.
As for “SAGGSAGGSAMSVTATVPEKPVTLTYIPPNTVTKTVIDPSTGTTTTTEVNLPPGVVPASLLLSAGGSAGGSA [r18_59_JUSTAS]”, the “folding stability dG unfold” value in data set [1] is 0.14 ± 0.045 kcal/mol; in data set [2], -0.191 ± 0.13 kcal/mol; in data set [3], 0.313 ± 0.05 kcal/mol.
With “SAGGSAGGSAMSVVVKYTVLLTDPVTGKTTVVPVTATLPVSDGTAKTIEEIVAEHPNYEILESAGGSAGGSA [r18_267_JUSTAS]”, the “folding stability dG unfold” value in data set [1] is 1.56 ± 0.039 kcal/mol; in data set [2], 1.3 ± 0.026 kcal/mol; in data set [3] it was 1.81 ± 0.068 kcal/mol.
Regarding “SAGGSAGGSAMTAREIADELVKEGKEVKVTVRRPGEEKEITVTKEGEPLPPGAEIVKIEEVSAGGSAGGSAG [r3_421_TrROS_Hall]”, the “folding stability dG unfold” value in data set [1] is 0.0343 ± 0.14 kcal/mol; in data set [2], 0.187 ± 0.08 kcal/mol; in data set [3] it was -0.678 ± 0.19 kcal/mol.
“SAGGSAGGSAMTITVEVPPSVPAEEAAERVAERLRAEFPVPDIRVTVETTPDGTVTVTITEASAGGSAGGSA [r18_1_JUSTAS]”: the “folding stability dG unfold” value in data set [1] is 0.275 ± 0.1 kcal/mol; in data set [2] it was 0.436 ± 0.09 kcal/mol; in data set [3], -0.291 ± 0.16 kcal/mol.
For the sequence “SAGGSAGGSAMTLNVPDAGGKTYTVEVLSYDPVKNTWTLLNPSTSETITITAEEAAKIKAAASAGGSAGGSA [r18_161_JUSTAS]”, the “folding stability dG unfold” value in data set [1] worked out at 2.1 ± 0.11 kcal/mol; in data set [2], 2.01 ± 0.066 kcal/mol; in data set [3], 2.01 ± 0.072 kcal/mol.
In the same order, the values of “SAGGSAGGSAMTLRVKITLPDGRELELEIEAETEEEALAALKELIKKLFPEVKEVKIEVEPESAGGSAGGSA [r18_434_TrROS_Hall]” are 4.84 ± 0.4 kcal/mol, 4.85 ± 0.38 kcal/mol and 3.91 ± 0.3 kcal/mol.
Regarding “SAGGSAGGSAMTPQVIKVTLYKPATGDVRTVVVLDPVPNTSLDEVAAALPSDYVVAKVEVGSAGGSAGGSAG [r3_80_TrMRF]”, the “folding stability dG unfold” value in data set [1] is -0.0325 ± 0.14 kcal/mol; in data set [2] it was -0.308 ± 0.33 kcal/mol; in data set [3], 0.166 ± 0.079 kcal/mol.
With “SAGGSAGGSAMTPVTIKVTLTNPATGSTTTKTIYVPEPNPSVEEIKKKLPSDWTVTSITLSSAGGSAGGSAG [r3_80_JUSTAS]”, the “folding stability dG unfold” value in data set [1] stood at 1.07 ± 0.16 kcal/mol; in data set [2], 0.828 ± 0.16 kcal/mol; in data set [3], 1.23 ± 0.045 kcal/mol.
In the same order, the values of “SAGGSAGGSAMTTTSTSTYPDSITTTTTTTVDGTYIITTTTFYPATGTTTTTTTTLPPSLTSAGGSAGGSAG [r3_316_JUSTAS]” are 2.41 ± 0.048 kcal/mol, 1.987 ± 0.011 kcal/mol and 2.91 ± 0.093 kcal/mol.
On the same counts, the results for “SAGGSAGGSAMTVLVMEIKIELRVNEDGSLELRMEIEIKPVEPITLEELAEKLGLSKEELLSAGGSAGGSAG [r3_338_TrROS_Hall]” are 3.03 ± 0.14 kcal/mol, 2.91 ± 0.085 kcal/mol and 3.28 ± 0.12 kcal/mol.
In the same order, the values of “SAGGSAGGSAMTVRFGKPEELEKAEELAEEIAKAHPGKPIKVTVTKDPNNPDEYTVTITEESAGGSAGGSAG [r3_131_JUSTAS]” are 0.289 ± 0.14 kcal/mol, 0.544 ± 0.09 kcal/mol and -0.24 ± 0.16 kcal/mol.
On to “SAGGSAGGSAMTVRIEFEDGSVKEIPAEEFSEDFIKALPKKYKVSEYPEPPLDNNKSNILKSAGGSAGGSAG [r3_69_JUSTAS]”, for which the entries for the “folding stability dG unfold” value in data set [1], in data set [2] and in data set [3] were 0.431 ± 0.091 kcal/mol, 0.697 ± 0.085 kcal/mol and -0.0131 ± 0.059 kcal/mol, respectively.
On the same counts, the results for “SAGGSAGGSAMVITKTTASVEEVKEEIKKEYPNANVKITKVSTSADGKTTYKIEIKIPKNNKSAGGSAGGSA [r18_464_JUSTAS]” are 2 ± 0.16 kcal/mol, 2.5 ± 0.033 kcal/mol and 0.586 ± 0.067 kcal/mol.
In the same order, the values of “SAGGSAGGSAMVTIAFPDGTVVEIPASLSEEEVEAEAERLAKERAAGVRPVDVTVESIEPPGSAGGSAGGSA [r18_213_JUSTAS]” are 1.07 ± 0.069 kcal/mol, 1.43 ± 0.062 kcal/mol and 0.356 ± 0.035 kcal/mol.
In the same order, the values of “SAGGSAGGSAMVVEVPVEFPDDVKVYSVEEDPELGVLLVKVKFPDREVLAVIPGDKLFIADASAGGSAGGSA [r18_212_TrMRF]” are 0.422 ± 0.052 kcal/mol, 0.325 ± 0.089 kcal/mol and 0.43 ± 0.016 kcal/mol.
Consider “SAGGSAGGSAMVVPRTYRVPPGLTVEEVADYLRAKDPNVIDATAERRPDGYLLVTVLVRLDSAGGSAGGSAG [r3_371_TrMRF]”, for which the “folding stability dG unfold” value in data set [1] was 1.69 ± 0.17 kcal/mol; in data set [2], 2.07 ± 0.079 kcal/mol; in data set [3] it was 1.21 ± 0.068 kcal/mol.
On the same counts, the results for “SAGGSAGGSAMWVIRIWFPNGNKRTIPIPPNEKLTAEEILDEFRIPNGREMRILRVEIWPYSAGGSAGGSAG [r3_465_TrROS]” are 2.43 ± 0.042 kcal/mol, 2.66 ± 0.034 kcal/mol and 1.967 ± 0.011 kcal/mol.
